Measured values as given in patent publication US20220033484A1 (FAPON BIOTECH, published 2022).
Residue numbers refer to the chain shown, from its start.

B1: WT 1-51 (antibody, V domains shown)
VH: EVQLQQSGPELVKPGASVKMSCKASGYSFTIYVVHWVKQKPGQGLEWIGYIQPYIDGTRYNEKFKGKATLTVDKSSSTAFMELSSLTSEDSAVYYCARTGYGQYGLAWLAYWGQGTLVTVSA
VL: QAVVIQESALTTSPGETVTLTCRSSSGAATTSQYANWVQEKPDHLFTGLIGGSNNRAPGVPARFSGSLIGDKAALTITGAQTEDEAIYFCAIVYSNHWVFGGGTKLTVLG
notes: Heavy chain built as m63
B2: Mutation 1-3 (antibody, V domains shown)
VH: B1 VH with S28T, I31L, R59K, T99S
VL: B1 VL with S26T, A29V, Q33N, N54Q, I92L, H97Q
notes: Built as m8
B3: Mutation 1-1 (antibody, V domains shown)
VH: B1 VH with S28T, V34L, R59K, T99S, Q103N
VL: B1 VL with S26T, Q33N, N54Q, I92L, H97Q
notes: built as m3
B4: Mutation 1-5 (antibody, V domains shown)
VH: B1 VH with S28T, I31L, V34I, R59K, T99S, Q103G
VL: B1 VL with S26T, Q33N, N54Q, I92L
notes: Built as m8
B5: Mutation 1-14 (antibody, V domains shown)
VH: B1 VH with S28T, V34I, Q52N, R59K, T99S, Q103G
VL: B1 VL with S26T, A29V, I92L
notes: Built as m8
B6: Mutation 1-16 (antibody, V domains shown)
VH: B1 VH with S28T, I31L, V34L, Q52N, I55L, R59K, T99S, Q103N
VL: B1 VL with S26T, I92L
notes: Built as m8
B7: Mutation 1-7 (antibody, V domains shown)
VH: B1 VH with S28T, V34L, I55L, R59K, T99S, Q103N
VL: B1 VL with S26T, A29V, Q33N, N54Q, I92L
notes: Built as m8
B8: Mutation 1-4 (antibody, V domains shown)
VH: B1 VH with S28T, I31L, V34L, R59K, T99S, Q103N
VL: B1 VL with S26T, I92L, H97N
notes: Built as m8
B9: Mutation 1-8 (antibody, V domains shown)
VH: B1 VH with S28T, V34I, I55L, R59K, T99S, Q103G
VL: B1 VL with S26T, I92L, H97Q
notes: Built as m8
B10: Mutation 1-10 (antibody, V domains shown)
VH: B1 VH with S28T, I31L, V34L, I55L, R59K, T99S, Q103N
VL: B1 VL with S26T, A29V, I92L, H97Q
notes: Built as m8
B11: Mutation 1-13 (antibody, V domains shown)
VH: B1 VH with S28T, V34L, Q52N, R59K, T99S, Q103N
VL: B1 VL with S26T, Q33N, N54Q, I92L, H97N
notes: Built as m8
B12: Mutation 1-9 (antibody, V domains shown)
VH: B1 VH with S28T, I31L, I55L, R59K, T99S
VL: B1 VL with S26T, Q33N, N54Q, I92L
notes: Built as m8
B13: Mutation 1-6 (antibody, V domains shown)
VH: B1 VH with S28T, I55L, R59K, T99S
VL: B1 VL with S26T, A29V, I92L, H97N
notes: Built as m8
B14: Mutation 1-15 (antibody, V domains shown)
VH: B1 VH with S28T, I31L, Q52N, R59K, T99S
VL: B1 VL with S26T, A29V, Q33N, N54Q, I92L, H97N
notes: Built as m8
B15: Mutation 1-2 (antibody, V domains shown)
VH: B1 VH with S28T, V34I, R59K, T99S, Q103G
VL: B1 VL with S26T, A29V, I92L, H97N
notes: Built as m8

Biological target: T1, cTnI quality control product recombinant protein (human, UniProt P19429 2-210, limits assumed)
T1 construct: treated as the same molecule; also called cTnI antigen; cardiac troponin I
T1 sequence (P19429 2-210 limits assumed): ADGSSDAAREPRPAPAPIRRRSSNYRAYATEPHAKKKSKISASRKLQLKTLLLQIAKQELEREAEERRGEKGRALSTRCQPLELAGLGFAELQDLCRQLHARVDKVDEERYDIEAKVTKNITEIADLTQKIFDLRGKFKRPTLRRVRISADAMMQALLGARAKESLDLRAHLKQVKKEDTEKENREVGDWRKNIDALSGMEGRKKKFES
Experiment: AMC sensor, antibody immobilised, cTnI in solution
Experimental: Operating process: it is equilibrated in Buffer 1 (PBST) for 60 s, the antibody is immobilized in an antibody solution for 300 s, incubated in Buffer 2 (PBST) for 180 s, bound in antigen solution for 420 s, dissociated in the Buffer 2 for 1200 s, 10 mM of GLY solution with pH 1.69 and Buffer 3 are used for sensor regeneration, and data is output. KD represents an equilibrium dissociation constant, namely the affinity; Kon represents a binding rate; and Kd is represents a dissociation rate.

Binder | Kd [nM] | koff [s⁻¹] | kon [M⁻¹ s⁻¹]
B1 | 35.4 | 0.000527 | 14900
B2 | 0.399 | 9.54e-06 | 23900
B3 | 8.27 | 0.000712 | 86100
B4 | 1.2 | 4.4e-05 | 36800
B5 | 0.866 | 2.21e-05 | 25500
B6 | 6.48 | 0.000222 | 34300
B7 | 2.77 | 0.000176 | 63600
B8 | 5.03 | 0.000232 | 46200
B9 | 9.31 | 0.000244 | 26200
B10 | 0.731 | 4.12e-05 | 56300
B11 | 0.139 | 3.79e-06 | 27300
B12 | 5.43 | 0.00024 | 44200
B13 | 0.697 | 5.34e-05 | 76600
B14 | 0.759 | 4.7e-05 | 61900
B15 | 7.64 | 0.00061 | 79900
